Assay results taken from US20140221613A1.
Residue numbers refer to the chain shown, from its start. Values joined by “and” are separate entries in the source; they are usually repeats but may differ in a detail not shown here. Equal values may be shown once. Blank lines part the entries; values can stand above or below the binder they belong to.

Columns and labels:
[1] = target: IgG1 type humanized monoclonal antibody
[2] = target: IgG1 type humanized monoclonal antibody; remark: listed apart in the source
[3] = target: IgG1 type humanized monoclonal antibody; remark: listed apart in the source
[4] = target: IgG1 type humanized monoclonal antibody; assay: SPR, IgG1 antibody immobilised, pH 7.4
human immunoglobulin IgG [5] = target: human immunoglobulin IgG
human immunoglobulin IgG [6] = target: human immunoglobulin IgG; remark: listed apart in the source
[7] = target: Fc region of human immunoglobulin (human); assay: pH 4.5
[8] = target: Fc region of human immunoglobulin (human); assay: pH 7.4
[9] = target: Fc region of human immunoglobulin (human); assay: SPR, Fc immobilised, weakly acidic region
[10] = target: Fc region of human immunoglobulin (human); assay: SPR, Fc immobilised, neutral region

B1: CGB19H-1D (designed binder)
chain: MAYYDPETGTWYSGGRDTYKLILNGKTLKGETTTEAVDAATAEKVFKHYANEHGVHGHWTYDPETKTFTVTERPEVIDASELTPAVGGGGSGGGGSGGGGSGGGGCHHHHHH
Binding Rate of Antibody after Running Buffer for 10 min (Binding portion) [1]: 52.6%
Dissociation Rate of Antibody at an acidic pH, pH2 (30s) later [2]: 52.7%
Dissociation Rate of Antibody at an acidic pH, pH3 (30s) later [2]: 35.1%
Dissociation Rate of Antibody at an acidic pH, pH5 (30s) later [2]: 7.1%

B2: CGB19H-3D (designed binder)
chain: MAYYDPETGTWYSGGRDTYKLILNGKTLKGETTTEAVDAATAEKVFKHYANEHGVHGHWTYDPETKTFTVTERPEVIDASELTPAVDTYKLILNGKTLKGETTTEAVDAATAEKVFKHYANEHGVHGHWTYDPETKTFTVTERPEVIDASELTPAVDTYKLILNGKTLKGETTTEAVDAATAEKVFKHYANEHGVHGHWTYDPETKTFTVTERPEVIDASELTPAVGGGGCHHHHHH
Kd [3]: 0.1 nM
Binding Rate of Antibody after Running Buffer for 10 min (Binding portion) [1]: 62.5% and 69.6%
fold avidity improvement against M-PG19 [4]: 190 fold
fold difference of the dissociation rate constant against M-PG19 [4]: 370 times
Dissociation Rate of Antibody at an acidic pH, pH2 (30s) later [2]: 51.2% and 67.4%
Dissociation Rate of Antibody at an acidic pH, pH3 (30s) later [2]: 36.2% and 29.9%
Dissociation Rate of Antibody at an acidic pH, pH5 (30s) later [2]: 6.4% and 4.6%

B4: OXADac-PG17 (designed binder)
chain: MGAGTPVTAPLAGTIWKVLASEGQTVAAGEVLLILEAMKMETEIRAAQAGTVRGIAVKAGDAVAVGDTLMTLAGSGSDLYDDDDKGIITSLYKKAGSAAAPFTDTYKLILNGKRLKGETITEAVDAATAEKVFKQYANEHGVDGEWTYDPETKTFTVTE
Ratio of the remaining amount of antibody by SPR sensor gram at pH 4.0 (human immunoglobulin IgG [5]): 86%
koff (human immunoglobulin IgG [5]): 0.032 s⁻¹

B5: OXADac-PG19 (designed binder)
chain: B4 chain with R114T, I120T, Q135H, D143H, E145H
increase of the dissociation rate constant against the wild-type (human immunoglobulin IgG [6]): 1000 fold
percent of adsorbed IgG dissociated at pH 4.0 (human immunoglobulin IgG [6]): 60%
Ratio of the remaining amount of antibody by SPR sensor gram at pH 4.0 (human immunoglobulin IgG [5]): 38%
koff (human immunoglobulin IgG [5]): 0.27 s⁻¹

B6: OXADac-PG13 (designed binder)
chain: B4 chain with R114T, I120T, D143H
Ratio of the remaining amount of antibody by SPR sensor gram at pH 4.0 (human immunoglobulin IgG [5]): 64%
koff (human immunoglobulin IgG [5]): 0.06 s⁻¹

B8: OXADac-PG15 (designed binder)
chain: B4 chain with I120T
Ratio of the remaining amount of antibody by SPR sensor gram at pH 4.0 (human immunoglobulin IgG [5]): 90%
koff (human immunoglobulin IgG [5]): 0.00044 s⁻¹

B14: CGB19H-5D (designed binder)
chain: MAYYDPETGTWYSGGRDTYKLILNGKTLKGETTTEAVDAATAEKVFKHYANEHGVHGHWTYDPETKTFTVTERPEVIDASELTPAVDTYKLILNGKTLKGETTTEAVDAATAEKVFKHYANEHGVHGHWTYDPETKTFTVTERPEVIDASELTPAVDTYKLILNGKTLKGETTTEAVDAATAEKVFKHYANEHGVHGHWTYDPETKTFTVTERPEVIDASELTPAVDTYKLILNGKTLKGETTTEAVDAATAEKVFKHYANEHGVHGHWTYDPETKTFTVTERPEVIDASELTPAVDTYKLILNGKTLKGETTTEAVDAATAEKVFKHYANEHGVHGHWTYDPETKTFTVTERPEVIDASELTPAVGGGGSGGGGSGGGGSGGGGCHHHHHH
Binding Rate of Antibody after Running Buffer for 10 min (Binding portion) [1]: 65.2% and 82.7%
Dissociation Rate of Antibody at an acidic pH, pH2 (30s) later [2]: 63.4% and 81.8%
Dissociation Rate of Antibody at an acidic pH, pH5 (30s) later [2]: 5.6% and 2.1%

More lines, now with the values ahead:

Ratio of the remaining amount of antibody by SPR sensor gram at pH 4.0 (human immunoglobulin IgG [5]): 71%
koff (human immunoglobulin IgG [5]): 0.04 s⁻¹
B3: OXADac-PG14 (designed binder)
chain: B4 chain with R114T, I120T, E145H

Ratio of the remaining amount of antibody by SPR sensor gram at pH 4.0 (human immunoglobulin IgG [5]): 58%
B7: OXADac-PG20 (designed binder)
chain: B4 chain with R114T, I120T, D125H, Q135H, D143H, E145H

Ratio of the remaining amount of antibody by SPR sensor gram at pH 4.0 (human immunoglobulin IgG [5]): 94%
koff (human immunoglobulin IgG [5]): 0.00013 s⁻¹
B9: OXADac-PG16 (designed binder)
chain: B4 chain with R114T

Ratio of the remaining amount of antibody by SPR sensor gram at pH 4.0 (human immunoglobulin IgG [5]): 93%
koff (human immunoglobulin IgG [5]): 0.00011 s⁻¹
B10: OXADac-PG07 (designed binder)
chain: B4 chain with R114T, I120T

Kd [7]: 230 nM
Kd [8]: 290 nM
B11: M-PG07 (designed binder)
chain: MDTYKLILNGKTLKGETTTEAVDAATAEKVFKQYANEHGVDGEWTYDPETKTFTVTE

Kd [3]: 19 nM
Kd [7]: 1000 nM
Kd [8]: 43 nM
fold of affinity in the acidic region against M-PG01 [9]: 0.6 times
fold of avidity in the neutral region against M-PG01 [10]: 11 times
B12: M-PG19 (designed binder)
chain: B11 chain with Q33H, D41H, E43H

Binding Rate of Antibody after Running Buffer for 10 min (Binding portion) [1]: 59.4% and 77.8%
Dissociation Rate of Antibody at an acidic pH, pH2 (30s) later [2]: 55.6% and 76.3%
Dissociation Rate of Antibody at an acidic pH, pH3 (30s) later [2]: 34.6% and 18.6%
Dissociation Rate of Antibody at an acidic pH, pH5 (30s) later [2]: 6.9% and 3.7%
B13: CGB19H-4D (designed binder)
chain: MAYYDPETGTWYSGGRDTYKLILNGKTLKGETTTEAVDAATAEKVFKHYANEHGVHGHWTYDPETKTFTVTERPEVIDASELTPAVDTYKLILNGKTLKGETTTEAVDAATAEKVFKHYANEHGVHGHWTYDPETKTFTVTERPEVIDASELTPAVDTYKLILNGKTLKGETTTEAVDAATAEKVFKHYANEHGVHGHWTYDPETKTFTVTERPEVIDASELTPAVDTYKLILNGKTLKGETTTEAVDAATAEKVFKHYANEHGVHGHWTYDPETKTFTVTERPEVIDASELTPAVGGGGSGGGGSGGGGSGGGGCHHHHHH
